Measurements taken from article PMC9132891, “Antigenic structure of the human coronavirus OC43 spike reveals exposed and occluded neutralizing epitopes” (Nature Communications, 2022).

Tests used:
Assay in all cases: ELISA; S1 antigens coated; H2L2 mAbs at one concentration, 0.4 μg/ml; OD450nm
Details in all cases: both partners purified
[1] = molecular target: T1, S1 of bovine coronavirus (BCoV), strain Mebus (Bovine coronavirus (strain Mebus) …, UniProt P15777)
T1 construct: also called BCoV S1; source: HEK-293T, purified (Protein A sepharose)

[2] = molecular target: T2, S1 of OC43 isolate NL/2019 (Human coronavirus OC43, NL/2019, strain)
T2 construct: source: HEK-293T, transient, purified from culture supernatant (Protein A sepharose)
T2 chain: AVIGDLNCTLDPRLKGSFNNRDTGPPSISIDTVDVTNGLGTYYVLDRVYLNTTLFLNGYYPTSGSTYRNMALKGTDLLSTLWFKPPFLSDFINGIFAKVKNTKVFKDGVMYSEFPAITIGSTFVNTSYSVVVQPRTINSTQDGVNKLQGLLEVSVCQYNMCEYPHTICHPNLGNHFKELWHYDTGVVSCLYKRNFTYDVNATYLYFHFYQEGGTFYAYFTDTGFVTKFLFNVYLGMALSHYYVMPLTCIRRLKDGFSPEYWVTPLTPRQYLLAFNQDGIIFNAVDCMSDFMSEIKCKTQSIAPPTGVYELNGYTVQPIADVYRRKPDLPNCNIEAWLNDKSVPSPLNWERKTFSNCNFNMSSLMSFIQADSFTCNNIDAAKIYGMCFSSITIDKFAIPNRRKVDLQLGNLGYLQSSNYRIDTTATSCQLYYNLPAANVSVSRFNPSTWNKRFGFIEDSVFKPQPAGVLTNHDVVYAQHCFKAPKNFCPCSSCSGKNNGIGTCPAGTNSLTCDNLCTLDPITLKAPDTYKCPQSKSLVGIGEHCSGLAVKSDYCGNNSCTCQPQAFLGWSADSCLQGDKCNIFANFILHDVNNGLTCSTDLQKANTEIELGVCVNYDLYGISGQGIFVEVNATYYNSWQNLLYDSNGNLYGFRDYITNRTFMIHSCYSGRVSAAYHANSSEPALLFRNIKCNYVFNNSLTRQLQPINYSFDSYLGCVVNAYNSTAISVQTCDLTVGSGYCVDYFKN

[3] = molecular target: T3, S1 of OC43 isolate BE/2004 (Human coronavirus OC43, BE/2004, UniProt Q4VID5, strain)
T3 construct: source: HEK-293T, transient, purified from culture supernatant (Protein A sepharose)

[4] = molecular target: T4, S1 of OC43 isolate USA/1990(B) (Human coronavirus OC43, USA/1990(B) …, strain)
T4 construct: source: HEK-293T, transient, purified from culture supernatant (Protein A sepharose)
T4 chain: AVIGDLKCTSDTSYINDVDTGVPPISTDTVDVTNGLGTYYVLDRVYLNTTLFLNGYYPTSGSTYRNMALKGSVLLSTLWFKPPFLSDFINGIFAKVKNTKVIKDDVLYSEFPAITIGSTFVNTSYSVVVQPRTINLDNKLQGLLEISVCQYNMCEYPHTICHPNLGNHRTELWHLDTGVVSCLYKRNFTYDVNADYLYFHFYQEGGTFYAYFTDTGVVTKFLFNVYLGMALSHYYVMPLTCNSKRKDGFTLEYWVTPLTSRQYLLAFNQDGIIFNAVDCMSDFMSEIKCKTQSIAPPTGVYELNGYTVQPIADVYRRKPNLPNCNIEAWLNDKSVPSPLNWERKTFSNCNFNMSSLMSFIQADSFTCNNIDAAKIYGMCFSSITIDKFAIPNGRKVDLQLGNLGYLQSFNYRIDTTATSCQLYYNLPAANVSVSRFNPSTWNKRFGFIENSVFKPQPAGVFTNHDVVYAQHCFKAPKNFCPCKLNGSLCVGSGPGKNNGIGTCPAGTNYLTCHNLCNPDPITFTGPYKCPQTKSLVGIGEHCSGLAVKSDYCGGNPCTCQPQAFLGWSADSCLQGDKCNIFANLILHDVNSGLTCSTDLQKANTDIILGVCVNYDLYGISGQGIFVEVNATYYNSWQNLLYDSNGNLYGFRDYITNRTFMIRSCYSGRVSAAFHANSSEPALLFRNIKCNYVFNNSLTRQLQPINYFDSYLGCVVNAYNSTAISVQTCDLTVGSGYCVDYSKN

[5] = molecular target: T5, S1 of OC43 isolate USA/1990(A-II) (Human coronavirus OC43, USA/1990(A-II) …, strain)
T5 construct: source: HEK-293T, transient, purified from culture supernatant (Protein A sepharose)
T5 chain: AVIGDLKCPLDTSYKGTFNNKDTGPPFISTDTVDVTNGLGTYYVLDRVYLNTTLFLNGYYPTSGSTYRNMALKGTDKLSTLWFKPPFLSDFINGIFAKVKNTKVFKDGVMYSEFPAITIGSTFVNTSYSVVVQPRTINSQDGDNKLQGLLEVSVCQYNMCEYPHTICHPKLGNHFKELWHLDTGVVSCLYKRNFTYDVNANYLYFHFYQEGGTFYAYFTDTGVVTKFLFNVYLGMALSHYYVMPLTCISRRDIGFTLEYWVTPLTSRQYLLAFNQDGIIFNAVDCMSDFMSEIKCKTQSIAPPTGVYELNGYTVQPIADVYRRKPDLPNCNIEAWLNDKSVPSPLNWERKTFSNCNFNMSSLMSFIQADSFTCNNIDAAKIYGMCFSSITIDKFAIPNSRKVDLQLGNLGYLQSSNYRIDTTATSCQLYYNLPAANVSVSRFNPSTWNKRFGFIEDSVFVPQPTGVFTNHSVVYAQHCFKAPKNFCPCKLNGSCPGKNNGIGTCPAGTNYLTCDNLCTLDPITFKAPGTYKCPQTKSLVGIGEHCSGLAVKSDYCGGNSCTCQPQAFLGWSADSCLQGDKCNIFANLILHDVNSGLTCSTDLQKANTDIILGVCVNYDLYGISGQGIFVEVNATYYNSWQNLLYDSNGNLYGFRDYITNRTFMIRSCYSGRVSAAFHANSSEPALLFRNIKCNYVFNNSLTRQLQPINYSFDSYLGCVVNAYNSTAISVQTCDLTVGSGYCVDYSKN

[6] = molecular target: T6, S1 of equine coronavirus (ECoV), strain NC99 (Equine coronavirus, strain NC99, UniProt A8R4D0, strain)
T6 construct: also called ECoV S1; source: HEK-293T, purified (Protein A sepharose)

[7] = molecular target: T7, S1 of OC43 isolate NL/2004 (Human coronavirus OC43, NL/2004, strain)
T7 construct: source: HEK-293T, transient, purified from culture supernatant (Protein A sepharose)
T7 chain: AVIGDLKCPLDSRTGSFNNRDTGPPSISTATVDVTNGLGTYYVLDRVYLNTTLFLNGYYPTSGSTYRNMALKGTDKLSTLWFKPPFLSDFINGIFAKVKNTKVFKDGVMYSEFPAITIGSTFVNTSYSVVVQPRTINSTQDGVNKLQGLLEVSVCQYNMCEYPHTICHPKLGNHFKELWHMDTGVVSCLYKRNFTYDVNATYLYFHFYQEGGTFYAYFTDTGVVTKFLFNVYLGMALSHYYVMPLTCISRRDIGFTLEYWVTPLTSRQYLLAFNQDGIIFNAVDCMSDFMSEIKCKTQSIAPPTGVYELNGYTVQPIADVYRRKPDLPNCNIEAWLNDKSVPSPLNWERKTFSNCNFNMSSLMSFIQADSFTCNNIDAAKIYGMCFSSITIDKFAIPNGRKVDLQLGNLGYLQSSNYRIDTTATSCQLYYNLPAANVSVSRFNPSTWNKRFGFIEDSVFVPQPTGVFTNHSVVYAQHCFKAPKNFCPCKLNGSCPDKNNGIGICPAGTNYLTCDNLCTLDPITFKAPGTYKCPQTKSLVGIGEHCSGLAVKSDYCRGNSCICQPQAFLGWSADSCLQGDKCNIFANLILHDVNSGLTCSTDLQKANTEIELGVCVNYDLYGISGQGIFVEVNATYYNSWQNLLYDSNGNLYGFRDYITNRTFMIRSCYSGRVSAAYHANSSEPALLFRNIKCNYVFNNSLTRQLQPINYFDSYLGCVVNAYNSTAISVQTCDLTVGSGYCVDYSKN

Measured: binding result

T1 sequence (P15777 14-763): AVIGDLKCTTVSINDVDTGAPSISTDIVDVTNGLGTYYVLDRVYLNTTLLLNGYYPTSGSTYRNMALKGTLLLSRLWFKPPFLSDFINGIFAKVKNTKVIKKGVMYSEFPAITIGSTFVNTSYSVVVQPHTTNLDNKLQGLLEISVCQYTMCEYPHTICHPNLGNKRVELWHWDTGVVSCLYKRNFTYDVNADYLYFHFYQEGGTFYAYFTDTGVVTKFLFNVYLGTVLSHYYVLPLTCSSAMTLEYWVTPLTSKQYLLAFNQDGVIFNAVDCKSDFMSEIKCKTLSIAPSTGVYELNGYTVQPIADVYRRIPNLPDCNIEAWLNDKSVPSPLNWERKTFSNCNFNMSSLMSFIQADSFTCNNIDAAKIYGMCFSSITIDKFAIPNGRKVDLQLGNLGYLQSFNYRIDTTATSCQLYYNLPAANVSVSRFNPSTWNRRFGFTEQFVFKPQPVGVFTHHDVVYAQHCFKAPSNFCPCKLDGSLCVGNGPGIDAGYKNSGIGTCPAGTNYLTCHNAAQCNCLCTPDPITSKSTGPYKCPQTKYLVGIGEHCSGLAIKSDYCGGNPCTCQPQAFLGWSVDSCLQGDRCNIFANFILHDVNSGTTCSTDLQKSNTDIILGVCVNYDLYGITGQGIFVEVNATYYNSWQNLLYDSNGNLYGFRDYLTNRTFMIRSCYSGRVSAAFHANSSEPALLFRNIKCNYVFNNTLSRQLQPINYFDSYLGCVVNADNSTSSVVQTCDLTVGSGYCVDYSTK

B1: 45B9 H2L2 monoclonal antibody (antibody, V domains shown)
VH: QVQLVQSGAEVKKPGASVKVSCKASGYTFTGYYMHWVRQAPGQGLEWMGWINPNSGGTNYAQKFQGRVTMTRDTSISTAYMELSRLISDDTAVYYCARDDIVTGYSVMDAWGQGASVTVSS
VL: DIQMTQSPSSLSASVGDRVTITCRASQSISNYLNWYQQKPGKAPTLLIYAASSLQSGVPSRFSGSGSGTDFTLTISSLQPEDFATYYCQPSYSSPYTFGQGTKLEIK
notes: also called 45B9 (H2L2 format)
binds: all assays above

B2: 65A11 H2L2 monoclonal antibody (antibody, V domains shown)
VH: QVQMVESGGGVVQPGRSLRLSCAASGFSFSSYGMHWVRQAPGKGLEWVAVIWSDVNYKFYADSVKGRFTISRDNSKNTLSLQMNSLRAEDTAVYYCARDSGLRYFDWDYRGYFDLWGRGTLVTVSS
VL: not shown
notes: also called 65A11 (H2L2 format)
binds: [1]

B3: 56E10 H2L2 monoclonal antibody (antibody, V domains shown)
VH: QVQLQESGPGLVKPSETLSLTCTVSGGSISGYYWSWIRQPPGKGLEWIGYIFYNGNTNYNPSLKSRVTTSLDTSKNQFSLKLISVTGADTAVYYCVRTSLYYFDYWGQGTLVTVSS
VL: DIQMTQSPSSLSASVGDRVTITCQASQDISNFLNWYQQKPGKAPKLLIYDTSSLETGVPSRFSGSGSETDFTFTISSLQPEDIATYYCQQYDNLPLTFGGGTKVEIK
notes: also called 56E10 (H2L2 format)
not listed: [1] | [6]
binds: all other assays above
